# Measurements: PMC7596348, “The Iron-Sulfur Flavoprotein DsrL as NAD(P)H:Acceptor Oxidoreductase in Oxidative and Reductive Dissimilatory Sulfur Metabolism” (Frontiers in Microbiology, 2020)
# B1: CtDsrL-1B (Chlorobaculum tepidum TLS) (protein)
# chain: MNAESNPILDFATEYVYPAFSELTGTDKIVAFGDHSHKCPIYVPQTPPCTAECPAGEDIRAINRFLNGTDPSDDPLKSAWETATDTNPFPAVMGRICPHPCQSKCNRGVHDESVAINAVEQVLGNYGIEHNLKLKGPGADTGKRVAIIGGGPAGLSAAYQLRRKGHAVTIYDANEKLGGMVLYGIMGYRVDRKVLEAEIGRIIELGVETKMGVTIGKDITLEQLEAEYDAVFIAVGAQKGRALPVPGFEGTPGATNAIDFLKSYEVLGDDIPVGKHVVVIGDGNVAMDVARLALRLGSQATIISGVPREEMACFENEFDDAKNEGTTMHFLTGTVEVLGGASGVTGLRCTKMVKKEKGEEGWNSPIPFLRYKSNGESFEIEADMVVAAIGQATDLSGLGSAASGPWLKVDRNFRIPGREKLFGGGDALKVDLITTAVGHGRKAAYAIDAFLKGEPMPEEPYREITKPHKQDLLYFLHTPQAKRTSIKPEVVVGNHDELLEALTPEQAITESKRCMSCGFCFDCKQCVSFCPQEAITRFRDNPAGEKVYTDYTKCVGCHLCSLVCPCGYIQMGMGDGL
# notes: full length (577 residues), C-terminal Strep-tag (… from primer), E. coli BL21(DE3) ΔiscR; primer-coded N-term MNAESNP, C-term GMGDGL
# B2: AvDsrL-1A (Allochromatium vinosum DSM 180) (protein)
# chain: MATSSDEMKMKPTWRRFEDGEHVWDNLTDKIFNQDRSHKCPTYVHKTPPCQGSCPSGEDIRGWLQIVRGMEKPPQGMDWQEYAFRRSTDANPFPAMMGRVCPAPCQDGCNRNELEDFVGINSVEQFIGDTAIANGYTFEAPELDTGKRIAIVGGGPAGLAAAYQLRRKGHSCTIFEANDGLGGMFRFGIPGYRVPRDKLDAEIQRILDMGRVEVRLKTRIGTDVTVEQLEKDYDAILWAIGCQSGRGLPVPGWEGTPNCVTGVAFLKAFNEGRMKVTAGKVVCVGGGDTSIDVVSVARRLGHVNKSNPNELPETVIRDGYVAHDAASAAAAQGAEVTLTSLFTRDKMTASEHEVDDATREGVTILDGVMPVEVIKDANGRAIGLKVADCTMTDGRPTPVEGTERVLEADLIVSAIGQGGDLSGLEQLDNGRGLMDSDKFYQVPGKAGHFVAGDIIRPHLLTTAIGQAWIAADSIDAYVMQAEHKRRPKVDVHHFNLLDKLTEAHLAPESFVAGQAGDMRGTSDANYAIHNYEDRSGAEVIPHEELFLGHFNYVPRNLRKEEVPSADEVLGHFHERVIGLTEPEAIDEAKRCMSCGLCFECDNCVIFCPQDAVFRVDKGSRTTGRYVDTDYAKCIGCHICADVCPTGYIKMGLGE
# notes: full length, C-terminal Strep-tag (… from primer), E. coli BL21(DE3) ΔiscR; primer-coded N-term MATSS, C-term IKMGLGE; FAD and four [4Fe-4S] per monomer; homodimer
# B3: DaDsrL-2 (Desulfurella amilsii) (protein)
# chain: MAVVKVKKSIKSFSKPSGTEYSSDRPIYVEKRPPCSDTCPNGEQVREFLQYIAQAQDYGRTYEEALEGAFYIIAQTNSMPATTGRICPHPCESRCNRKDKDSAVNINASEMFIGDFAVQNKLPLKKLDETYDAKVAVIGSGPSGLSCAYHLARRGVKVTIFEKEEKPGGLLYYGIPNFRLPKEIVSAEIQRIVDLGVDIKYGKAVGKDIGIEDLKKEFDCIYVATGAYKPEKPNLENIDNIKGVYSGLEFLYHFAKGERIDIGKDVVVVGADTAADAAMISKRWGANVTFAYRRTVPDKETFDKKASREAIDAYEEGITFQFATVPVELVSENGKLTGVKFQKIKVGAKDERGHAAQVENIGEPFLVKADAFIYSVGQKPDYSGLEKLLGQSEGFVKIKDNYQVEGQDKVFAGGDVVGPRLMYVTTAIGHGFAAAVNMIEYLTGKKVIEKDTRKVIESDKMHLDLYEAKPRHERKLRDPIERIKDFEPFMNGLSMEEFIEEAKRCMSCGLCFDCGNCFTYCSHSGVKKLPKGQHYEFHLETCDGCMKCFENCPCGYIEKM
# notes: full length, C-terminal Strep-tag (… from primer), E. coli BL21(DE3) ΔiscR; primer-coded N-term MAVVKVK, C-term PCGYIEKM; contains YRR motif
# Columns and labels:
# Test in all cases: purified protein
# purified protein [1] = substrate: NC(=O)C1=CN([C@@H]2O[C@H](COP(=O)(O)OP(=O)(O)OC[C@H]3O[C@@H](n4cnc5c(N)ncnc54)[C@H](O)[C@@H]3O)[C@@H](O)[C@H]2O)C=CC1; type: biochemical, Chlorobaculum tepidum; details: 300 μM MTT, 50 mM potassium phosphate pH 8.0, 40°C
# purified protein [2] = substrate: NC(=O)c1ccc[n+]([C@@H]2O[C@H](COP(=O)(O)OP(=O)(O)OC[C@H]3O[C@@H](n4cnc5c(N)ncnc54)[C@H](O)[C@@H]3O)[C@@H](O)[C@H]2O)c1; type: biochemical, Chlorobaculum tepidum; details: reduced methylviologen as donor, pH 8.0, 40°C
# purified protein [3] = substrate: NC(=O)C1=CN([C@@H]2O[C@H](COP(=O)(O)OP(=O)(O)OC[C@H]3O[C@@H](n4cnc5c(N)ncnc54)[C@H](O)[C@@H]3O)[C@@H](O)[C@H]2O)C=CC1; type: biochemical, Allochromatium vinosum; details: 300 μM MTT, 50 mM potassium phosphate pH 7.0, 30°C
# purified protein [4] = substrate: NC(=O)c1ccc[n+]([C@@H]2O[C@H](COP(=O)(O)OP(=O)(O)OC[C@H]3O[C@@H](n4cnc5c(N)ncnc54)[C@H](O)[C@@H]3O)[C@@H](O)[C@H]2O)c1; type: biochemical, Allochromatium vinosum; details: reduced methylviologen as donor, pH 7.0, 30°C
# purified protein [5] = substrate: NC(=O)C1=CN([C@@H]2O[C@H](COP(=O)(O)OP(=O)(O)OC[C@H]3O[C@@H](n4cnc5c(N)ncnc54)[C@H](OP(=O)(O)O)[C@@H]3O)[C@@H](O)[C@H]2O)C=CC1; type: biochemical, Allochromatium vinosum; details: 300 μM MTT, 50 mM potassium phosphate pH 7.0, 30°C
# purified protein [6] = substrate: NC(=O)c1ccc[n+]([C@@H]2O[C@H](COP(=O)(O)OP(=O)(O)OC[C@H]3O[C@@H](n4cnc5c(N)ncnc54)[C@H](OP(=O)(O)O)[C@@H]3O)[C@@H](O)[C@H]2O)c1; type: biochemical, Allochromatium vinosum; details: reduced methylviologen as donor, pH 7.0, 30°C
# purified protein [7] = substrate: NC(=O)C1=CN([C@@H]2O[C@H](COP(=O)(O)OP(=O)(O)OC[C@H]3O[C@@H](n4cnc5c(N)ncnc54)[C@H](OP(=O)(O)O)[C@@H]3O)[C@@H](O)[C@H]2O)C=CC1; type: biochemical, Desulfurella amilsii; details: 300 μM MTT, 50 mM potassium phosphate pH 6.5, 45°C
# purified protein [8] = substrate: NC(=O)c1ccc[n+]([C@@H]2O[C@H](COP(=O)(O)OP(=O)(O)OC[C@H]3O[C@@H](n4cnc5c(N)ncnc54)[C@H](OP(=O)(O)O)[C@@H]3O)[C@@H](O)[C@H]2O)c1; type: biochemical, Desulfurella amilsii; details: reduced methylviologen as donor, pH 6.5, 45°C
protein,measurement,setting,value
B1,Km,purified protein [1],267.5 ± 20.5 µM
same,Vmax,purified protein [1],436 µmol/min/mg
same,kcat,purified protein [1],460 s⁻¹
same,kcat/Km,purified protein [1],1.72e+06 M⁻¹ s⁻¹
same,Km,purified protein [2],95.2 ± 9.9 µM
same,Vmax,purified protein [2],366 µmol/min/mg
same,kcat,purified protein [2],387 s⁻¹
same,kcat/Km,purified protein [2],4.06e+06 M⁻¹ s⁻¹
B2,Km,purified protein [3],86.7 ± 17.0 µM
same,Vmax,purified protein [3],11.2 µmol/min/mg
same,kcat,purified protein [3],13.5 s⁻¹
same,kcat/Km,purified protein [3],156000 M⁻¹ s⁻¹
same,Km,purified protein [4],123.9 ± 10.3 µM
same,Vmax,purified protein [4],145 µmol/min/mg
same,kcat,purified protein [4],176 s⁻¹
same,kcat/Km,purified protein [4],1.42e+06 M⁻¹ s⁻¹
same,Km,purified protein [5],1667.0 ± 230.2 µM
same,Vmax,purified protein [5],4 µmol/min/mg
same,kcat,purified protein [5],4.9 s⁻¹
same,kcat/Km,purified protein [5],3000 M⁻¹ s⁻¹
same,Km,purified protein [6],2563.0 ± 272.1 µM
same,Vmax,purified protein [6],120 µmol/min/mg
same,kcat,purified protein [6],146 s⁻¹
same,kcat/Km,purified protein [6],57000 M⁻¹ s⁻¹
B3,Km,purified protein [7],124.5 ± 10.5 µM
same,Vmax,purified protein [7],103 µmol/min/mg
same,kcat,purified protein [7],110 s⁻¹
same,kcat/Km,purified protein [7],870000 M⁻¹ s⁻¹
same,Km,purified protein [8],22.0 ± 1.9 µM
same,Vmax,purified protein [8],88.8 µmol/min/mg
same,kcat,purified protein [8],94.3 s⁻¹
same,kcat/Km,purified protein [8],4.2e+06 M⁻¹ s⁻¹
